Here are results for nine molecules from publication PMC9087378 (Immunity, 2021).

Substitutions are numbered along the chain they refer to. Names and notes keep the numbering of the source. Where no end group is shown, it is not given here. The star is where a group is joined. Biotin = O=C1N[C@H]2[C@H](CS[C@H]2CCCCC(=O)*)N1

The target in assay [1] is T1, peptide 21 (PfCSP residues 101-115) (Plasmodium falciparum).
T1 chain: NPDPNANPNVDPNAN
In words: crystal structure.

Assay [2] deals with T2, Biotinylated junctional peptide NPDP19 (Plasmodium falciparum NF54/3D7).
T2 chain: Biotin-KQPADGNPDPNANPNVDPN
In words: BLI.

The target in assay [3] is T3, peptide NANP5, biotinylated (Plasmodium falciparum, biotin (position not given)).
T3 chain: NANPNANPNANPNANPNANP
In words: BLI. Background: In BLI a coated tip is dipped into the sample, and binding shifts an interference pattern.

For a further assay, the target named is T4, peptide 21, biotinylated (Plasmodium falciparum NF54/3D7, also: biotin, position not given here).
T4 chain: NPDPNANPNVDPNAN
In words: BLI.

Assay [4] has as its target T2, Biotinylated junctional peptide NPDP19. Description: AlphaScreen or HTRF. On the technique in general: Bead proximity is the source of the signal in Alpha formats.

B1: iGL-CIS43.D3 Fab (Fab, V domains shown)
VH: QVHLVQSGAEVKKPGASVKVSCKASGYTFTRYAIHWVRQAPGQRLEWMGWIKGGNGNTRYSQKFQDRVTITRDTSASTAYMELSSLRSEDTAVYYCALLTVITPDDAFDIWGQGTMVTVSS
VL: not shown
As a reminder, the Kd is the constant that tells how readily two partners part at equilibrium. Consider B1, for which, in assay [1], the binding result is listed as “binds”. In assay [2], this molecule returned a Kd of 1.01 nM.

B2: mature CIS43 Fab (Fab, V domains shown)
VH: B1 VH with H3Q, R31S, G53A, A76T, S77T, I102L
VL: not shown
B2: the binding result in assay [3] is listed as “binds”; in the assay with peptide 21, biotinylated, “binds”.

B3: iGL-CIS43-HL.K28.m43.151 Fab (Fab, V domains shown)
VH: B1 VH with R31S
VL: not shown
Regarding B3, in assay [1], the binding result is “binds”.

B4: iGL_Core8 with the reversion K52N in the heavy chain (antibody, V domains shown)
VH: B1 VH with H3Q, R31S, K52N, G53A, D66G
VL: not shown
Take B4: the binding result in assay [4] is “binds”.

B5: iGL_Core8 with the reversion R58K in the heavy chain (antibody, V domains shown)
VH: B1 VH with H3Q, R31S, G53A, R59K, D66G
VL: not shown
On to B5, for which the binding result in assay [4] is “binds”.

B6: iGL_Core8 with the reversion I34M in the heavy chain (antibody, V domains shown)
VH: B1 VH with H3Q, R31S, I34M, G53A, D66G
VL: not shown
For the molecule B6, the binding result in assay [4] is on record as “binds”.

B7: iGL_Core8 with the reversion I98V in the heavy chain (antibody, V domains shown)
VH: B1 VH with H3Q, R31S, G53A, D66G, I102V
VL: not shown
For B7, the binding result in assay [4] was “binds”.

B8: iGL-CIS43-HL.K28.m42.127 Fab (Fab, V domains shown)
VH: B1 VH with H3Q, R31S, G53A, A107T
VL: not shown
For B8, the binding result in assay [1] was “binds”.

B9: iGL_Core8 with the reversion S94T in the light chain (antibody, V domains shown)
VH: B1 VH with H3Q, R31S, G53A, D66G
VL: not shown
In the case of B9, the binding result in assay [4] was “binds”.
